{"source": "paper PMC6602146", "about": "(Molecules and Cells, 2019)", "proteins": {"B1": {"name": "α-carbonic anhydrase from Persephonella marina EX-H1 (enzyme, UniProt C0QRB5 20-243, looked up)", "chain": "GGGWSYHGEHGPEHWGDLKDEYIMCKIGKNQSPVDINRIVDAKLKPIKIEYRAGATKVLNNGHTIKVSYEPGSYIVVDGIKFELKQFHFHAPSEHKLKGQHYPFEAHFVHADKHGNLAVIGVFFKEGRENPILEKIWKVMPENAGEEVKLAHKINAEDLLPKDRDYYRYSGSLTTPPCSEGVRWIVMEEEMEMSKEQIEKFRKIMGGDTNRPVQPLNARMIMEK"}}, "biological_target": "the molecule itself", "assay": "crystal structure"}
{"protein": "B1", "values": [{"measurement": "stoichiometry N", "result": 2}]}
